Data reported in patent publication US20240293499A1 (SUNNYBROOK RESEARCH INSTITUTE, published 2024).

Legend:
[1] = biological target: T1, human VISTA on primary human immune cells (CD14+CD16- classical monocytes of PBMCs) (human, UniProt Q9H7M9 33-311); experiment: flow cytometry on human PBMC, gate CD14+CD16- monocytes, ΔMFI against isotype control, 5 donors
T1 construct: whole, on cells; Native protein on donor cells; also called hVISTA
T1 sequence (looked up): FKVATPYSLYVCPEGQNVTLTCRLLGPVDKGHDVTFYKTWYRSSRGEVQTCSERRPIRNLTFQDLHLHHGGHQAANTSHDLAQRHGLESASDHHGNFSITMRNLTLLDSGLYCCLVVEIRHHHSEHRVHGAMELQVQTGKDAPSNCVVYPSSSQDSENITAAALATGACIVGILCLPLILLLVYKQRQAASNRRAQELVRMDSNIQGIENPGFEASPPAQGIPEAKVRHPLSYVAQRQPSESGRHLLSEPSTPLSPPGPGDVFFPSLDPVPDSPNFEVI
Procedure: (§1) Binding of mAbs and Nbs to human and murine immune cells were tested using human PBMCs and mouse splenocytes. For binding on human cells, whole human blood was obtained from donors in accordance with guidelines set forth by the Sunnybrook Research Ethics board (REB approval number 443-2017). Human peripheral blood mononuclear cells (PMBCs) were isolated from whole blood using Ficoll Paque PLUS (1.077 g/ml) (17144003; Cytiva). PBMCs had their Fc receptors blocked with Human TruStain FcX (422301; BioLegend) then incubated with 2.5 μg of mAb, mouse IgG1 (401408; BioLegend), or rat IgG2a (400565; BioLegend) or 15 μg Nb for 1 hour at 4° C. After washing with PBS, the PBMCs were incubated with secondary antibodies (1 μL; FITC anti-mouse IgG1, FITC anti-HA, or FITC anti-rat IgG2a; 406605, 901507, or MRG2a-83; BioLegend) or control FITC anti-VISTA antibodies (clone B7H5DS8; 11-1088-42; eBioscience) for 40 minutes at 4° C. […] Finally, the PBMCs were washed and resuspended in 3 μM DAPI (D1306; Thermo Fisher Scientific) and cytometric profiles recorded using a BD LSR II flow cytometer (BD) maintained by The Centre for Flow Cytometry & Scanning Microscopy (CCSM) at Sunnybrook Research Institute (SRI; Sunnybrook Health Sciences Centre, Toronto, ON, Canada). […]

[2] = biological target: T2, hVISTA-COMP-his, pentameric form comprising the extracellular IgV domain of human VISTA (human, UniProt Q9H7M9 33-194); experiment: SPR (BIAcore T200), single-cycle kinetics; hVISTA-COMP-his captured on anti-His chip, mAb as analyte; 1:1 Langmuir fit
T2 construct: domain: extracellular IgV domain; not shown: his tag
Procedure: (§2) Binding kinetics of mAbs and Nbs to hVISTA and mVISTA were obtained by surface plasmon resonance (SPR) using a BIAcore T200 (Cytiva) and HBS running buffer (20 mM of HEPES pH 7.4, 150 mM NaCl, 0.005% Tween-20, 3.4 mM EDTA). Briefly, anti-histidine antibodies were immobilized on a CM5 chip (29149604; Cytiva) using the His capture kit (28995056; Cytiva) following manufacture's protocol. For mAbs, VISTA was captured by flowing […] of hVISTA-COMP-his or mVISTA-COMP-his at a flow rate of 30 μL/min. Sensorgrams were collected using single-cycle kinetics covering five mAb concentrations (1:2 serial dilutions). For Nbs, solutions of each nanobody ([…]) were flown over an anti-histidine-coated chip. Five concentrations (1:2 serial dilutions) of hVISTA-Fc (produced in house) were then injected at a flow rate of 30 μL/min. KD, Kₒₙ, and Koff were calculated by analyzing the sensorgrams with a 1:1 Langmuir binding model²³ after subtracting reference sensorgrams.

[3] = biological target: T2, hVISTA-COMP-his, pentameric form …; experiment: SPR (BIAcore T200), single-cycle kinetics, hVISTA-COMP-his captured on anti-His chip, mAb injected at 1, 2, 4, 8, 16 nM, 1:1 fit
Procedure: as §2

[4] = biological target: T3, hVISTA-Fc (produced in house) (human, UniProt Q9H7M9 33-194, limits assumed); experiment: SPR (BIAcore T200), single-cycle kinetics; Nb captured on anti-His chip, hVISTA-Fc as analyte; 1:1 Langmuir fit
T3 construct: Analyte in the SPR of the nanobodies; not shown: Fc
T3 sequence (looked up): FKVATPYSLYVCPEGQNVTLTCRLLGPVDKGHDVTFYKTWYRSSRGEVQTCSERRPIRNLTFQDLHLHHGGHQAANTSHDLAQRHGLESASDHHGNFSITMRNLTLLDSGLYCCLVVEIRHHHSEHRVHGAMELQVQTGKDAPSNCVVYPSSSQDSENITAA
Procedure: as §2

[5] = biological target: T3, hVISTA-Fc (produced in house); experiment: SPR (BIAcore T200), single-cycle kinetics, Nb captured on anti-His chip, hVISTA-Fc injected at 1.9, 3.8, 7.5, 15, 30 nM, 1:1 fit
Procedure: as §2

[6] = biological target: T2, hVISTA-COMP-his, pentameric form …; experiment: SPR (BIAcore T200), single-cycle kinetics, hVISTA-COMP-his captured on anti-His chip, mAb injected at 0.5, 1, 2, 4, 8 nM, 1:1 fit
Procedure: as §2

[7] = biological target: T4, mVISTA-COMP-his, pentameric form comprising the extracellular IgV domain of murine VISTA (mouse, UniProt Q9D659 33-191); experiment: SPR (BIAcore T200), single-cycle kinetics, mVISTA-COMP-his captured on anti-His chip, mAb injected at 20, 40, 80, 160, 320 nM, 1:1 fit
T4 construct: domain: extracellular IgV domain; Captured on an anti-histidine chip for SPR of the mAbs; also called recombinant mouse VISTA; not shown: his tag
T4 sequence (Q9D659 whole entry, looked up): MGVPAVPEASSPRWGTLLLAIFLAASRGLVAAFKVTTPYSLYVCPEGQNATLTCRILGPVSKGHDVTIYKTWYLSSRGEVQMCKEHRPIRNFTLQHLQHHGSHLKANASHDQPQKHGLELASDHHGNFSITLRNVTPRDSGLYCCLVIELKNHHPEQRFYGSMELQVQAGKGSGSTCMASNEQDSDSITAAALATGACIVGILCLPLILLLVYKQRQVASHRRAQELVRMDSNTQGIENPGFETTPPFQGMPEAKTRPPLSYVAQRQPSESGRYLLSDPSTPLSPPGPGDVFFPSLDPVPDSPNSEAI
Procedure: as §2

[8] = biological target: T4, mVISTA-COMP-his, pentameric form …; experiment: SPR (BIAcore T200), single-cycle kinetics; mVISTA-COMP-his captured on anti-His chip, mAb as analyte; 1:1 Langmuir fit
Procedure: as §2

[9] = biological target: T2, hVISTA-COMP-his, pentameric form …; experiment: SPR (BIAcore T200), single-cycle kinetics, hVISTA-COMP-his captured on anti-His chip, mAb injected at 20, 40, 80, 160, 320 nM, 1:1 fit
Procedure: as §2

[10] = biological target: T1, human VISTA on primary human immune …; experiment: flow cytometry on human PBMC, gate CD14+CD16- monocytes, ΔMFI against isotype control, 5 donors; representative histogram against mIgG
Procedure: as §1

[11] = biological target: T2, hVISTA-COMP-his, pentameric form …; experiment: SPR (BIAcore T200), single-cycle kinetics, hVISTA-COMP-his captured on anti-His chip, mAb injected at 2, 4, 8, 16, 32 nM, 1:1 fit
Procedure: as §2

B1: murine anti-hVISTA mAb 7G5 (antibody, V domains shown)
VH: QIQLVQSGPELKKPGETVKISCKASGYTFTNYGMNWVKQAPEKGLKWMGWINTYTGEPTYADDFKGRFAFSLETSASTAYLQINNLKNEDTATYFCARRSNPWPNDYWGQGTSLTVSS
VL: DIQMTQSPSSFSASLGERVSLTCRASQEISGYLSWLQQKPDGTIKRLIYAASTLDSGVPKRFSGSRSGSDYSLTISSLESEDFADYYCLQYASYPWTFGGGTKLEIK
notes: Variable regions only, although headed 'Heavy Chain' and 'Light Chain'; Mouse IgG1 from hybridoma
[1]
  binding result: binds
[2]
  Kd: 0.14 nM
[3]
  Kd: 0.136 nM

B2: anti-hVISTA nanobody hVISTANb1 (VHH)
VHH: QVQLQESGGGLVQPGGSLRLSCAASGSVGTIFSMGWFRQAPGVQREMVATITNSGETNYAAFVKGRFTISRDNAENTVYLQMNSLKPEDTAAYYCNAFDYVGGRTYELPYWGQGTQVTVSS
notes: Llama nanobody made in E. coli WK6, purified by IMAC, detected with anti-HA
[4]
  Kd: 11 nM
[5]
  Kd: 10.8 nM
  koff: 0.00109 s⁻¹
  kon: 102000 M⁻¹ s⁻¹

B3: murine anti-hVISTA mAb 7E12 (antibody, V domains shown)
VH: DVHLQESGPGLVKPSQSLSLTCSVTGYSITSGYYWNWIRQFPGNKLEWMGYISYDGNNNYNPSLKNRISITRDTSKNQFFLKLNSVTTEDTATYYCARGDYGSEAMDYWGQGTSVTVSS
VL: DIRVTQSPASLAVSLGQRATISCRASKSVSTSGYSYMNWYQQKPGQPPQLLIYLASNLESGVPARFSGSGSGTDFTLNIHPVEEEDAAIYYCQHSRELPWTFGGGTKLEIK
notes: Mouse IgG1 purified from hybridoma
[6]
  Kd: 0.442 nM
  koff: 0.000123 s⁻¹
  kon: 279000 M⁻¹ s⁻¹
[2]
  Kd: 0.44 nM

B4: rat anti-hmVISTA mAb 7C7 (antibody, V domains shown)
VH: EVQLVESGGGLVQPGRSLKLSCVASGFTFNKYWMSWTRQAPGKGLEWVASITNSGGNTYYPDSVKGRFTISRDNAQNTLYLQMNSLRSEDTATYYCTLGVDYWGQGAMVTVSS
VL: DVVMTQTPPSLSVTIGQSVSISCKSSQSLVYSDGKTYLHWLLQSSGRSPKRLIYQVSNLASGVPDRFSGTGSQKDFTLKISRVEAKDLGVYYCAQTTHFPYTFGAGTKLEMK
notes: Variable regions only; Rat IgG2a from hybridoma
[7]
  Kd: 50.5 nM
  koff: 0.002 s⁻¹
  kon: 39600 M⁻¹ s⁻¹
[8]
  Kd: 51 nM
[2]
  Kd: 49 nM
[9]
  Kd: 49.4 nM
  koff: 2.2 s⁻¹
  kon: 4.45e+07 M⁻¹ s⁻¹

B5: murine anti-hVISTA mAb 8G10 (antibody, V domains shown)
VH: QVQLQQSGAELVRPGASVTLSCKASGYTFTDYEMHWVKQTPVHGLEWIGAIDPETGGTAYNQKFKGKATLTADKSSSTAYMELRSLTSEDSAVYYCTRWSLRPYAMDYWGQGTSVTVSS
VL: DVVMTHTPLSLPVSLGDQASISCRSSQSLVHNNGNTYLHWYLQKPGQSPKLLIYKVSNRFSGVPDRFSGSGSGTDFTLKISRVEAEDLGLYFCSQSTHVPWTFGGGTKLEIK
notes: as for B1
[10]
  binding result: binds
[2]
  Kd: 0.98 nM
[11]
  Kd: 0.98 nM
  koff: 0.000111 s⁻¹
  kon: 113000 M⁻¹ s⁻¹
